Legend:
Test in all cases: ITC
[1] = target: T1, SUDV VP30 CTD (139–288) (Sudan ebolavirus (SUDV), UniProt Q5XX03 139-288)
T1 chain: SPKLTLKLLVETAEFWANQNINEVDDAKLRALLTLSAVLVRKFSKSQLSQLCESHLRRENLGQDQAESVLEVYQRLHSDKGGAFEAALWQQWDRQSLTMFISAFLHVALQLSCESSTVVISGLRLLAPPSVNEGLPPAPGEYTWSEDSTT

[2] = target: T2, SUDV VP30 CTD (139–288) (Sudan ebolavirus (SUDV), UniProt Q5XX03 139-288); conditions: both partners purified
T2 sequence: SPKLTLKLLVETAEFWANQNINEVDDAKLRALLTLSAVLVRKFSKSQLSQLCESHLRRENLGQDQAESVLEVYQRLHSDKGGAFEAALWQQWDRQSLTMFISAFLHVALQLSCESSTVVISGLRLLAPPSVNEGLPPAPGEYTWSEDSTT

[3] = target: T3, MARV VP30 CTD (146–281) (Marburg virus (MARV), UniProt P35258 146-281)
T3 chain: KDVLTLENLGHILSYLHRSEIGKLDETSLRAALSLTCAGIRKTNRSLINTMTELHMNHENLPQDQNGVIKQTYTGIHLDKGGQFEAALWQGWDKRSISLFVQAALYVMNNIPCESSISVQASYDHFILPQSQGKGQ

[4] = target: T4, Ebola virus VP30 C-terminal domain (amino acids 139–288) (Ebola virus (EBOV), UniProt Q05323 139-288)
T4 chain: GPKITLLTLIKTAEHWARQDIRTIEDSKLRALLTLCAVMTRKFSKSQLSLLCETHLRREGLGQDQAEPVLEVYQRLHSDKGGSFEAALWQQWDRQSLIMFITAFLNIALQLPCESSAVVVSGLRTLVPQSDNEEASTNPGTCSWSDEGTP

EQGVDLPPPPLYAQEKRQ [MARV NP peptide (552–569) fused to T4 lysozyme]
Kd [1]: 27.1 µM

RTPTVAPPAPVYRDHSEK [EBOV NP 600–617 fused to T4 lysozyme]
binding result [2]: binds | Kd [1]: 4.9 µM | Kd [3]: 35 µM

NTPTVAPPAPVYKDTGVD [SUDV NP peptide (600–617) fused to T4 lysozyme]
Kd [1]: 7.98 µM | Kd [4]: 9.5 µM | Kd [3]: 70 µM
